The values that follow come from paper PMC8219681, “Inhibition of MRN activity by a telomere protein motif” (Nature Communications, 2021).

To fix the notation:
B1: Rad50 (S. cerevisiae, FLAG-tagged at the C terminus) [S. cerevisiae] / MBP-Rif2 (S. cerevisiae Rif2, wild type) [S. cerevisiae] (parent complex)
chain 1: MSAIYKLSIQGIRSFDSNDRETIEFGKPLTLIVGMNGSGKTTIIECLKYATTGDLPPNSKGGVFIHDPKITGEKDIRAQVKLAFTSANGLNMIVTRNIQLLMKKTTTTFKTLEGQLVAINNSGDRSTLSTRSLELDAQVPLYLGVPKAILEYVIFCHQEDSLWPLSEPSNLKKKFDEIFQAMKFTKALDNLKSIKKDMSVDIKLLKQSVEHLKLDKDRSKAMKLNIHQLQTKIDQYNEEVSEIESQLNEITEKSDKLFKSNQDFQKILSKVENLKNTKLSISDQVKRLSNSIDILDLSKPDLQNLLANFSKVLMDKNNQLRDLETDISSLKDRQSSLQSLSNSLIRRQGELEAGKETYEKNRNHLSSLKEAFQHKFQGLSNIENSDMAQVNHEMSQFKAFISQDLTDTIDQFAKDIQLKETNLSDLIKSITVDSQNLEYNKKDRSKLIHDSEELAEKLKSFKSLSTQDSLNHELENLKTYKEKLQSWESENIIPKLNQKIEEKNNEMIILENQIEKFQDRIMKTNQQADLYAKLGLIKKSINTKLDELQKITEKLQNDSRIRQVFPLTQEFQRADLEMDFQKLFINMQKNIAINNKKMHELDRRYTNALYNLNTIEKDLQDNQKSKEKVIQLLSENLPEDCTIDEYNDVLEETELSYKTALENLKMHQTTLEFNRKALEIAERDSCCYLCSRKFENESFKSKLLQELKTKTDANFEKTLKDTVQNEKEYLHSLRLLEKHIITLNSINEKIDNSQKCLEKAKEETKTSKSKLDELEVDSTKLKDEKELAESEIRPLIEKFTYLEKELKDLENSSKTISEELSIYNTSEDGIQTVDELRDQQRKMNDSLRELRKTISDLQMEKDEKVRENSRMINLIKEKELTVSEIESSLTQKQNIDDSIRSKRENINDIDSRVKELEARIISLKNKKDEAQSVLDKVKNERDIQVRNKQKTVADINRLIDRFQTIYNEVVDFEAKGFDELQTTIKELELNKAQMLELKEQLDLKSNEVNEEKRKLADSNNEEKNLKQNLELIELKSQLQHIESEISRLDVQNAEAERDKYQEESLRLRTRFEKLSSENAGKLGEMKQLQNQIDSLTHQLRTDYKDIEKNYHKEWVELQTRSFVTDDIDVYSKALDSAIMKYHGLKMQDINRIIDELWKRTYSGTDIDTIKIRSDEVSSTVKGKSYNYRVVMYKQDVELDMRGRCSAGQKVLASIIIRLALSETFGANCGVIALDEPTTNLDEENIESLAKSLHNIINMRRHQKNFQLIVITHDEKFLGHMNAAAFTDHFFKVKRDDRQKSQIEWVDINRVTY
chain 2: MEHVDSDFAPIRRSKKVVDSDKIVKAISDDLEQKNFTVLRKLNLVPIKKSVSSPKVCKPSPVKERVDHVFYQKFKSMALQELGTNYLSISYVPSLSKFLSKNLRSMKNCIVFFDKVEHIHQYAGIDRAVSETLSLVDINVVIIEMNDYLMKEGIQSSKSKECIESMGQASYSGQLDFEASEKPSNHTSDLMMMVMRKINNDESIDHIVYFKFEQLDKLSTSTIIEPSKLTEFINVLSVLEKSNNIAFKVLIYSNNVSISSLLSTSLKKKLNTKYTVFEMPILTCAQEQEYLKKMIKFTFDSGSKLLQSYNSLVTCQLNNKESNLAIFFEFLKVFPHPFTYLFNAYTEIIVQSRTFDELLDKIRNRLTIKNYPHSAYNFKKNQRLPLKLTRKVHDR

Variants of B1 are the subject of this experiment. As to the kind of experiment: pull-down (amylose-immobilized MBP-Rif2 bait, Western blot with anti-Rad50 antibody, quantified); three independent blots; mean with SEM; parent: 100; read off a plot. On the technique in general: A western blot detects proteins with antibodies after separation by electrophoresis.
Regarding chain 1 K81I, the percent of parent was roughly 16 Relative value.
